Patent US20140171373A1 (REGENTS OF THE UNIVERSITY OF MINNESOTA, published 2014)

Assays:
Assay in all cases: competitive binding assay (PROMEGA-GLO 2)
caspase-2 = molecular target: T1, caspase-2 (UniProt P42575 170-325; P42575 334-452, limits assumed)
T1 construct: also called recombinant caspase-2
T1 sequence (looked up) 1: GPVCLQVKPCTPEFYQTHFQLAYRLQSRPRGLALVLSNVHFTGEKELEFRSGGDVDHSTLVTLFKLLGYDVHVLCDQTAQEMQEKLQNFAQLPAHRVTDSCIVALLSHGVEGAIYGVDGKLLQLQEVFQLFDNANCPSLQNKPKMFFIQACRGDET
T1 sequence (looked up) 2: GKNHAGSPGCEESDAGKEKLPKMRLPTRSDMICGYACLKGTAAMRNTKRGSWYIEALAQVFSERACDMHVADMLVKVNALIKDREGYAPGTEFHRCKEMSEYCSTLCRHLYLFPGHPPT

caspase-3 = molecular target: T2, caspase-3 (UniProt P42574 29-277, limits assumed)
T2 sequence (looked up): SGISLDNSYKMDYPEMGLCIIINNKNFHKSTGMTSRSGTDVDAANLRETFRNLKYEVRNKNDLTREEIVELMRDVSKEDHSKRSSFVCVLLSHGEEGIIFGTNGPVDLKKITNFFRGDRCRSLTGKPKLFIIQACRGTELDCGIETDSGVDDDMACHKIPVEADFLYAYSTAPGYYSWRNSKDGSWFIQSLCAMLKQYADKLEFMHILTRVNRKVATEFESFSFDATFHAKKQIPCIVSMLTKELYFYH

caspase-6 = molecular target: T3, caspase-6 (UniProt P55212 24-179; P55212 194-293, limits assumed)
T3 sequence (looked up) 1: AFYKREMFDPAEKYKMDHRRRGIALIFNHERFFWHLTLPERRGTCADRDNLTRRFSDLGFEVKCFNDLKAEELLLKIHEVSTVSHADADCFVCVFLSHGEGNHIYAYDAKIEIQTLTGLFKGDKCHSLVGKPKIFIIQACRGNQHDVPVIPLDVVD
T3 sequence (looked up) 2: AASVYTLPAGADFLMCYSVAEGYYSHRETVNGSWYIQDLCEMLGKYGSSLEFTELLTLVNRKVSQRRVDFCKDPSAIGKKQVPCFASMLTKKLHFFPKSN

B1: Ac-YKPVD-CHO (SEQ ID NO: 1) (peptide)
peptide: Ac-YKPVD-aldehyde
SMILES: CC(=O)N[C@@H](Cc1ccc(O)cc1)C(=O)N[C@@H](CCCCN)C(=O)N1CCC[C@H]1C(=O)N[C@H](C(=O)N[C@H](C=O)CC(=O)O)C(C)C
notes: Designed to mimic the caspase-2 cleavage site of tau; also called parent pentapeptide; Tyr-Lys-Pro-Val-Asp
With B1 the Ki (caspase-2) was 0.2 µM, the Ki (caspase-3) was 19.8 µM and the Ki (caspase-6) was 184 µM.
